Results from IntAct's records for PubMed 22960633.

Legend:
gnat1_human GNAT1 = gnat1_human GNAT1 (UniProt P11488)
arl3_mouse Arl3 = arl3_mouse Arl3 (UniProt Q9WUL7)
Sequence of arl3_mouse Arl3 (Q9WUL7 whole entry): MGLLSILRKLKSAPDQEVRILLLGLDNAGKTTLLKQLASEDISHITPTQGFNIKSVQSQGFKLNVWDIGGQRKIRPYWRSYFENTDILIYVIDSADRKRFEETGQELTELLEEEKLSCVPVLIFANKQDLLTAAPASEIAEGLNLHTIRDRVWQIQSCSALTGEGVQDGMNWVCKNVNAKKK

Sequence of gnat1_human GNAT1 (P11488 whole entry): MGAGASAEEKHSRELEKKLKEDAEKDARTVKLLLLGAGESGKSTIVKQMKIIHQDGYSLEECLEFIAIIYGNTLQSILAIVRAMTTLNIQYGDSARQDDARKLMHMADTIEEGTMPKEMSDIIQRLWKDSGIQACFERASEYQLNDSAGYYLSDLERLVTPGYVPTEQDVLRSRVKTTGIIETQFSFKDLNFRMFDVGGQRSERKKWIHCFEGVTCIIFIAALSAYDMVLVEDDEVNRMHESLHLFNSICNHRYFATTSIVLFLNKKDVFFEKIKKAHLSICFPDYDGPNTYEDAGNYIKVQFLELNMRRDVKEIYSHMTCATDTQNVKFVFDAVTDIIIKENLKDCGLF

How did the “effect of a mutation on the interaction” value (gnat1_human GNAT1) turn out when “Protein unc-119 homolog A (Homo sapiens) (from UniProt Q13432) Y194A” was run?
The value was “decreasing interaction”.

What about the “effect of a mutation on the interaction” value (arl3_mouse Arl3) of the same substance?
Its value is “decreasing interaction”.
